According to the Immune Epitope Database (IEDB):

What was measured:
HLA-A*01:01 [1] = experiment: IEDB peptide-MHC binding, purified MHC/direct/fluorescence; filed as Kd, often an IC50 or EC50 that approximates it; ≥ and ≤ were set here for values at or beyond the usual limits of such assays; conditions: source organism: Mycobacterium tuberculosis
HLA-A*02:01 = experiment: as above
HLA-A*03:01 = experiment: as above
HLA-A*11:01 [2] = experiment: as above
HLA-A*26:01 = experiment: as above
HLA-A*31:01 = experiment: as above
HLA-A*69:01 [3] = experiment: as above; conditions: source organism: Mycobacterium tuberculosis
HLA-B*15:01 = experiment: as above
HLA-B*15:17 = experiment: as above
HLA-B*18:01 = experiment: as above
HLA-B*27:05 [4] = experiment: as above
HLA-B*38:01 = experiment: as above
HLA-B*40:01 [5] = experiment: as above
HLA-B*46:01 = experiment: as above
HLA-B*48:01 = experiment: as above
HLA-B*51:01 [6] = experiment: as above
HLA-B*57:01 = experiment: as above
HLA-B*58:01 [7] = experiment: as above
HLA-A*30:01 = experiment: IEDB peptide-MHC binding, purified MHC/competitive/fluorescence; filed as Kd, often an IC50 or EC50 that approximates it; ≥ and ≤ were set here for values at or beyond the usual limits of such assays
HLA-B*08:01 = experiment: as above
HLA-A*02:03 = experiment: IEDB peptide-MHC binding, purified MHC/direct/fluorescence; filed as Kd, often an IC50 or EC50 that approximates it; ≥ and ≤ were set here for values at or beyond the usual limits of such assays; conditions: source organism: Giardia lamblia ATCC 50803
HLA-A*02:12 = experiment: as above; conditions: source organism: Giardia lamblia ATCC 50803
HLA-A*02:19 = experiment: as above; conditions: source organism: Giardia lamblia ATCC 50803
HLA-A*23:01 = experiment: as above; conditions: source organism: Giardia lamblia ATCC 50803
HLA-A*24:03 = experiment: as above; conditions: source organism: Giardia lamblia ATCC 50803
HLA-A*29:02 = experiment: as above; conditions: source organism: Giardia lamblia ATCC 50803
HLA-A*68:02 = experiment: as above; conditions: source organism: Giardia lamblia ATCC 50803
HLA-B*27:03 = experiment: as above; conditions: source organism: Giardia lamblia ATCC 50803
HLA-B*39:01 [8] = experiment: as above; conditions: source organism: Giardia lamblia ATCC 50803
HLA-A*01:01 [9] = experiment: IEDB peptide-MHC binding, purified MHC/competitive/fluorescence; filed as Kd, often an IC50 or EC50 that approximates it; ≥ and ≤ were set here for values at or beyond the usual limits of such assays
HLA-A*11:01 [10] = experiment: as above; conditions: source organism: Giardia lamblia ATCC 50803
HLA-A*30:02 = experiment: as above; conditions: source organism: Giardia lamblia ATCC 50803
HLA-A*66:01 = experiment: as above; conditions: source organism: Giardia lamblia ATCC 50803
HLA-B*07:02 [11] = experiment: as above; conditions: source organism: Giardia lamblia ATCC 50803
HLA-B*14:02 = experiment: as above; conditions: source organism: Giardia lamblia ATCC 50803
HLA-B*27:05 [12] = experiment: as above; conditions: source organism: Giardia lamblia ATCC 50803
HLA-B*40:01 [13] = experiment: as above; conditions: source organism: Giardia lamblia ATCC 50803
HLA-B*44:02 = experiment: as above; conditions: source organism: Giardia lamblia ATCC 50803
HLA-B*51:01 [14] = experiment: as above; conditions: source organism: Giardia lamblia ATCC 50803
HLA-B*53:01 = experiment: as above; conditions: source organism: Giardia lamblia ATCC 50803
HLA-B*58:01 [15] = experiment: as above; conditions: source organism: Giardia lamblia ATCC 50803
HLA-B*07:02 [16] = experiment: IEDB peptide-MHC binding, purified MHC/direct/fluorescence; filed as Kd, often an IC50 or EC50 that approximates it; ≥ and ≤ were set here for values at or beyond the usual limits of such assays; conditions: source organism: Burkholderia mallei
HLA-B*15:09 = experiment: as above; conditions: source organism: Burkholderia mallei ATCC 23344
HLA-A*69:01 [17] = experiment: IEDB peptide-MHC binding, purified MHC/competitive/fluorescence; filed as Kd, often an IC50 or EC50 that approximates it; ≥ and ≤ were set here for values at or beyond the usual limits of such assays; conditions: source organism: Burkholderia mallei ATCC 23344
HLA-B*39:01 [18] = experiment: as above; conditions: source organism: Burkholderia mallei ATCC 23344
[19] = source organism: Mycobacterium tuberculosis
[20] = source organism: Mycobacterium tuberculosis str. Haarlem
[21] = source organism: Mycobacterium tuberculosis variant bovis BCG str. Pasteur 1173P2
[22] = source organism: Giardia lamblia ATCC 50803
[23] = source organism: Burkholderia mallei
[24] = source organism: Burkholderia mallei ATCC 23344

Sequence: RPRLWRSVI
- Kd (HLA-A*01:01 [1]): ≥ 20 µM
- Kd (HLA-A*02:01; [19]): ≥ 20 µM
- Kd (HLA-A*03:01; [19]): ≥ 20 µM
- Kd (HLA-A*11:01 [2]; [19]): ≥ 20 µM
- Kd (HLA-A*26:01; [20]): ≥ 20 µM
- Kd (HLA-A*31:01; [19]): ≥ 20 µM
- Kd (HLA-A*69:01 [3]): ≥ 20 µM
- Kd (HLA-B*15:01; [19]): ≥ 20 µM
- Kd (HLA-B*15:17; [19]): 2.58 µM
- Kd (HLA-B*18:01; [19]): ≥ 20 µM
- Kd (HLA-B*27:05 [4]; [19]): ≥ 20 µM
- Kd (HLA-B*38:01; [20]): ≥ 20 µM
- Kd (HLA-B*40:01 [5]; [19]): ≥ 20 µM
- Kd (HLA-B*46:01; [19]): ≥ 20 µM
- Kd (HLA-B*48:01; [19]): ≥ 20 µM
- Kd (HLA-B*51:01 [6]; [19]): 0.964 µM
- Kd (HLA-B*57:01; [19]): ≥ 20 µM
- Kd (HLA-B*58:01 [7]; [19]): ≥ 20 µM
- Kd (HLA-A*30:01; [21]): ≥ 20 µM
- Kd (HLA-B*08:01; [21]): 0.324 µM

Sequence: MTFPLHFRS
- Kd (HLA-A*02:01; [22]): ≥ 20 µM
- Kd (HLA-A*02:03): ≥ 20 µM
- Kd (HLA-A*02:12): ≥ 20 µM
- Kd (HLA-A*02:19): ≥ 20 µM
- Kd (HLA-A*03:01; [22]): ≥ 20 µM
- Kd (HLA-A*23:01): ≥ 20 µM
- Kd (HLA-A*24:03): ≥ 20 µM
- Kd (HLA-A*26:01; [22]): ≥ 20 µM
- Kd (HLA-A*29:02): 0.028 µM
- Kd (HLA-A*68:02): ≤ 0.001 µM
- Kd (HLA-B*15:01; [22]): ≥ 20 µM
- Kd (HLA-B*18:01; [22]): ≥ 20 µM
- Kd (HLA-B*27:03): ≥ 20 µM
- Kd (HLA-B*39:01 [8]): ≥ 20 µM
- Kd (HLA-B*46:01; [22]): ≥ 20 µM
- Kd (HLA-A*01:01 [9]; [22]): ≥ 5 µM
- Kd (HLA-A*11:01 [10]): 0.113 µM
- Kd (HLA-A*30:01; [22]): ≥ 5 µM
- Kd (HLA-A*30:02): ≥ 5 µM
- Kd (HLA-A*66:01): ≥ 5 µM
- Kd (HLA-B*07:02 [11]): ≥ 5 µM
- Kd (HLA-B*08:01; [22]): ≥ 5 µM
- Kd (HLA-B*14:02): ≥ 5 µM
- Kd (HLA-B*27:05 [12]): ≥ 5 µM
- Kd (HLA-B*40:01 [13]): ≥ 5 µM
- Kd (HLA-B*44:02): ≥ 5 µM
- Kd (HLA-B*51:01 [14]): ≥ 5 µM
- Kd (HLA-B*53:01): ≥ 5 µM
- Kd (HLA-B*58:01 [15]): ≥ 5 µM

Sequence: EPFSRRHPL
- Kd (HLA-A*02:01; [23]): ≥ 20 µM
- Kd (HLA-A*03:01; [23]): ≥ 20 µM
- Kd (HLA-A*11:01 [2]; [23]): ≥ 20 µM
- Kd (HLA-A*26:01; [24]): ≥ 20 µM
- Kd (HLA-A*31:01; [23]): ≥ 20 µM
- Kd (HLA-B*07:02 [16]): 0.01 µM
- Kd (HLA-B*15:01; [23]): ≥ 20 µM
- Kd (HLA-B*15:09): ≥ 20 µM
- Kd (HLA-B*15:17; [23]): 0.367 µM
- Kd (HLA-B*18:01; [23]): ≥ 20 µM
- Kd (HLA-B*27:05 [4]; [23]): ≥ 20 µM
- Kd (HLA-B*38:01; [24]): ≥ 20 µM
- Kd (HLA-B*40:01 [5]; [23]): ≥ 20 µM
- Kd (HLA-B*46:01; [23]): ≥ 20 µM
- Kd (HLA-B*48:01; [23]): ≥ 20 µM
- Kd (HLA-B*51:01 [6]; [23]): ≥ 20 µM
- Kd (HLA-B*57:01; [23]): ≥ 20 µM
- Kd (HLA-B*58:01 [7]; [23]): ≥ 20 µM
- Kd (HLA-A*01:01 [9]; [24]): 3.27 µM
- Kd (HLA-A*69:01 [17]): 0.209 µM
- Kd (HLA-B*08:01; [24]): 0.0583 µM
- Kd (HLA-B*39:01 [18]): 0.443 µM
